Measurements reported in US20090004212A1, “Tumour vaccines for MUC1-positive carcinomas” (priority 1997, published 2009).
No end group written: not given here. *: point of attachment. αGalNAc = CC(=O)N[C@@H]1[C@@H](O)[C@@H](O)[C@@H](CO)O[C@@H]1*

Experiments:
[1] = system: T2 target cells; assay: CTL activity against peptide-loaded T2 target cells (CFSE/7-AAD); type: cell-based, human; conditions: T2 cells loaded with 10 μg/ml peptide, 6-hour incubation
Experimental: (§1) Peripheral blood mononuclear cells (PBMCs) were isolated from buffy coats of HLA-A*0201 healthy donors by Ficoll-Hypaque (MP Biomedicals, Solon, Ohio) density gradient centrifugation.
(§2) Dendritic cells (DCs) were generated by culturing adherent monocytes for 6 days in AIM-V medium (Invitrogen, Carlsbad, Calif.) supplemented with 500 U/mL granulocyte macrophage colonystimulating factor (GM-CSF, R&D, Minneapolis, Minn.) and 1000 U/mL interleukin (IL)-4 (R&D), and then matured for 48 hours with a cocktail of cytokines consisting of 10 ng/mL of each, tumor necrosis factor (TNF)-alpha, IL-6, IL-1beta (R&D), and 1 μg/mL prostaglandine E2 (Sigma, St. Louis, Mo.). […] DCs pulsed with single peptides were combined, washed, resuspended and used as stimulator cells. They were added to the autologous lymphocyte fraction in 24-well Linbro plates (ICN, Aurora, Ohio) at a ratio of 1:10 at culture initiation and fed in RPMI 1640 media supplemented with 10% human AB serum, 10 ng/ml rhIL-6 (R&D) and 5 ng/ml rhIL-12 (PreproTech, Rocky Hill, N.J.). On day 10 and thereafter every 9 days, T cells were restimulated at a ratio of 1 DC to 20 T cells, in RPMI 1640 media supplemented with 10% human AB serum, rhIL-2 and rhIL-7 (20 U/ml each, R&D).
(§3) Antigen Specificity was Assessed after 4 Stimulations. Three Days Past Each stimulation cell supernatant was collected and IFNy secretion was quantified using OptElA human IFNy ELISA kit (BD). CD8+ T-cells were enriched using magnetic microbeads (human CD8+ T Cell Isolation Kit II from Miltenyi Biotech, Auburn, Calif.) according to the manufacture's instructions and analyzed by flow cytometry for intracellular IFN-gamma and TNF-alpha production after a final 5-hour restimulation with peptide-loaded DCs in the presence of monensin (Golgi Stop, BD; 21). CTL activity was determined 3 days after the last restimulation. […] They were washed, labeled with 5- (and 6)-carboxyfluorescein diacetate succinimidyl ester (CFSE) according to the manufacture's instructions (Immunochemistry, Bloomington, Minn.) and added to a 96-well plate in duplicates at 5000 cells/well. CFSE labeled T2 cells not loaded with peptides were used as controls. CD8+ T effector cells were added at various E:T ratios for a 6-hour incubation at 37° C. Target cell death was detected by adding 7-amino-actinomycin (7-AAD, Immunochemistry) to each well 10 min before data analysis by flow cytometry and analysis was performed according to the manufacture's instructions (22).

[2] = molecular target: T1, HLA-A0201 (Homo sapiens, UniProt P04439, D140Y/D185E/D98H/E176V/E277Q/G131W/G231S/I119V/I121R/I166T/I218V/L300P/L318F/N151K/N90K/P208A/P217A/Q86G/Q94H/R138H/R169H/T345S); assay: MHC stabilization assay on T2 cells; type: binding; conditions: T2 cells, 100 μg peptide, 16 h, W6/32 antibody, FACS
T1 construct: endogenous in cells; host or cells: T2 cell line (TAP-deficient)
Experimental: MHC stabilization assay is based on the increased affinity of HLA-A, -B, -C specific monoclonal W6/32 antibody for the stabilized conformation of MHC molecules after binding of a peptide ligand. The T2 cells express empty MHC molecules with short half-life.
For MHC stabilization assay T2 cells were grown in IMDM medium supplemented with 2% FCS. T2 cells were washed in PBS from the residual serum, and resuspended at 1×10^6/ml of IMDM supplemented with 0.1% FCS and 25 mM HEPES. Half of a million of cells were incubated in 48-well cell culture plate with 1 μg of […]2-microglobulin and 100 μg of peptide for 16 h at 27° C. and 8% CO2. Cells were washed with 5 ml PBS, centrifuged at 180×g for 5 min and the pellet was resuspended in 10 μl PBS containing 1 μg of W6/32 antibody and incubated at 4° C. for 30 minutes.
Subsequently, cells were washed in PBS with 1% BSA (3×5 ml) and the pellet was resuspended in 50 μl of secondary anti-mouse Alexa 488 antibody (1:1000 in PBS with 0.1% BSA), incubated for 30 minutes in the dark, washed with PBS (3×5 ml) and resuspended in 500 μl of PBS. Binding of the W6/32 antibody to MHC class I molecules was analyzed by FACS on the Beckman Coulter ADCXL4C flow cytometer. As a positive control hepatitis B virus core antigen HBVc18-27 P6Y˜C ([…]) was used. As a negative control T2 cells were used, to which no peptide was added.
Relative binding capacities of the peptides were expressed as the percent of the positive control signal (100%), normalized to the negative control (0%). A mean fluorescence that was at least 10% higher than the negative control level was considered positive binding.

[3] = system: CD8+ T-cells; assay: IFN-gamma and TNF-alpha production by peptide-primed T-cells; type: cell-based, human; conditions: after last cycle of restimulation, 4 weeks of in vitro culture
Experimental: as §1, §2, §3

[4] = molecular target: T2, Human cathepsin-L (Homo sapiens, UniProt P07711); assay: In vitro proteolysis by cathepsin-L; type: biochemical; conditions: 37° C., 24 h
T2 construct: purchased Sigma (Munich, Germany)
Experimental: (§4) Glycopeptides were incubated with 10 μg of human 20S immunoproteasomes (Immatics) for […], at 37° C., in 10 μl of digestion buffer (20 mM HEPES/KOH, pH 7.6 containing 2 mM Mg(CH3COO)2 and 1 mM DTT) as described (13). Digestion was stopped after 24 h by freezing the sample at −80° C. Human cathepsin-L was purchased from Sigma (Munich, Germany) and solubilized in 0.1 M sodium acetate, pH 5.5, containing 1 mM EDTA and 1 mM dithiothreitol (12). About 5 mU of enzyme were added to sialoglycopeptide substrates SGGP1 to SGGP5 (75-100 μM) in a total volume of 20 μl. The reaction mixtures were incubated at 37° C. for 24 h and 1 μl of trifluoroacetic acid was added to stop the reaction. The reaction products were cleaned by solid-phase extraction on ZipTipC18 pipette tips and 0.5 μl aliquots were applied onto the MALDI target for mass spectrometric analysis. Kinetic studies with the non-glycosylated 100-mer P1 were performed under the same conditions and the products were chromatographed on HPLC for purification and quantification.

[5] = molecular target: T3, human 20S immunoproteasomes (Homo sapiens, UniProt P28062+P28065+P40306); assay: In vitro proteolysis of MUC1 repeat peptides and glycopeptides by immunoproteasomes; type: biochemical
T3 construct: purchased Immatics Biotechnologies (Tübingen, Germany)
Experimental: A 1 mg/ml solution of immunoproteasomes prepared according to a published protocol (20) was purchased from Immatics Biotechnologies (Tübingen, Germany) and stored frozen at −80° C.
as §4

[6] = molecular target: T4, HLA-A*0201 allele of the MHC class I molecule, empty, on the surface of TAP-deficient T2 cells (human); assay: MHC stabilization assay on T2 cells, W6/32 staining, flow cytometry
T4 construct: also called HLA-A2

T2 sequence (P07711 114-333): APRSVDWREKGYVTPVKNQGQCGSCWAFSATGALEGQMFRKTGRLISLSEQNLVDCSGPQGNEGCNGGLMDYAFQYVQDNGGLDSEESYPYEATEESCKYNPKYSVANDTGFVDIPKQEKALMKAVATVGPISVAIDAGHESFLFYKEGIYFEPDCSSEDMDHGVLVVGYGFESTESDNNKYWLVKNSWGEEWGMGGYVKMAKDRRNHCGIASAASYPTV

Molecule	lysis of peptide-pulsed T2 target cells by induced CD8+ T cells [1]	ligation strength (binding to HLA-A0201) [2]	CD8+ cells producing IFN-γ [3] [%]	TNF-α production by CD8+ cells [3]	binding result [6]	other results
SAPDTRPAPG (fragment of MUC1; listed as Homo sapiens) [Peptide F1]	efficiently lysed	strongest binders	28.8	not TNF-α		lysis of peptide-pulsed T2 target cells by induced CD8+ T cells ([1]; listed as SAP10): efficiently kill
(CVISAPDTRPAPGSTAPPAH)x5 [Peptide P1]						digestion of the substrate by cathepsin L [4]: quantitative digestion of the substrate within 24 h; AVERAGE FRAGMENT LENGTH ([5]; digest by immunoproteasomes): 25.2; NUMBER OF FRAGMENTS ([5]; digest by immunoproteasomes, HPLC and MALDI-MS): 105; % of glycopeptide ([5]; glycosylated 8- to 11-meric fragments relative to total 8- to 11-mers): 0%; 8-11 mers (%) ([5]; relative to total amount of digestion products of immunoproteasomal cleavage): 13%
SAPDT(-GalNAc)RPAPG (SAPDTRPAPG) [Peptide F2]	efficiently lysed	strong binding	22	not TNF-α		lysis of peptide-pulsed T2 target cells by induced CD8+ T cells ([1]; listed as SAP10-T5*): efficiently kill; ligation strength (binding to HLA-A0201) ([2]; listed as SAP10-T5*): binding comparably strong in the glycosylated and non-glycosylated form; ligation strength (binding to HLA-A0201) ([2]; listed as SAP10-T5-GalNAc): slightly weaker binding
SAPDTRPAPG (also called F1) [SAP10, non-glycosylated MUC1 tandem repeat peptide SAPDTRPAPG]					binds	
SAPDT(αGalNAc)RPAPG (Glycopeptide; also called SAP10-T5-GalNAc; F2) [SAPDT(-GalNAc)RPAPG (SAP10-T5*)]					binds	
